B1: functionally active murine recombinant MASP-2 protein (protein)
chain: SKWPEPVFGRLVSPGFPEKYADHQDRSWTLTAPPGYRLRLYFTHFDLELSYRCEYDFVKLSSGTKVLATLCGQESTDTEQAPGNDTFYSLGPSLKVTFHSDYSNEKPFTGFEAFYAAEDVDECRVSLGDSVPCDHYCHNYLGGYYCSCRAGYVLHQNKHTCSALCSGQVFTGKSGYLSSPEYPQPYPKLSSCTYSIRLEDGFSVILDFVESFDVETHPEAQCPYDSLKIQTDKGEHGPFCGKTLPPRIETDSHKVTITFATDESGNHTGWKIHYTSTARPCPDPTAPPNGSISPVQAIYVLKDRFYVFCKTGFELLQGSVPLKSFTAVCQKDGSWDRPMPECS
B2: catalytically inactive murine MASP-2A recombinant protein (protein)
chain: SKWPEPVFGRLVSPGFPEKYADHQDRSWTLTAPPGYRLRLYFTHFDLELSYRCEYDFVKLSSGTKVLATLCGQESTDTEQAPGNDTFYSLGPSLKVTFHSDYSNEKPFTGFEAFYAAEDVDECRVSLGDSVPCDHYCHNYLGGYYCSCRAGYVLHQNKHTCSALCSGQVFTGKSGYLSSPEYPQPYPKLSSCTYSIRLEDGFSVILDFVESFDVETHPEAQCPYDSLKIQTDKGEHGPFCGKTLPPRIETDSHKVTITFATDESGNHTGWKIHYTSTARPCPDPTAPPNGSISPVQAIYVLKDRFYVFCKTGFELLQGSVPLKSFTAVCQKDGSWDRPMPECS

Target: purified human C4, P0C0L4
Sequence (P0C0L4 whole entry, looked up): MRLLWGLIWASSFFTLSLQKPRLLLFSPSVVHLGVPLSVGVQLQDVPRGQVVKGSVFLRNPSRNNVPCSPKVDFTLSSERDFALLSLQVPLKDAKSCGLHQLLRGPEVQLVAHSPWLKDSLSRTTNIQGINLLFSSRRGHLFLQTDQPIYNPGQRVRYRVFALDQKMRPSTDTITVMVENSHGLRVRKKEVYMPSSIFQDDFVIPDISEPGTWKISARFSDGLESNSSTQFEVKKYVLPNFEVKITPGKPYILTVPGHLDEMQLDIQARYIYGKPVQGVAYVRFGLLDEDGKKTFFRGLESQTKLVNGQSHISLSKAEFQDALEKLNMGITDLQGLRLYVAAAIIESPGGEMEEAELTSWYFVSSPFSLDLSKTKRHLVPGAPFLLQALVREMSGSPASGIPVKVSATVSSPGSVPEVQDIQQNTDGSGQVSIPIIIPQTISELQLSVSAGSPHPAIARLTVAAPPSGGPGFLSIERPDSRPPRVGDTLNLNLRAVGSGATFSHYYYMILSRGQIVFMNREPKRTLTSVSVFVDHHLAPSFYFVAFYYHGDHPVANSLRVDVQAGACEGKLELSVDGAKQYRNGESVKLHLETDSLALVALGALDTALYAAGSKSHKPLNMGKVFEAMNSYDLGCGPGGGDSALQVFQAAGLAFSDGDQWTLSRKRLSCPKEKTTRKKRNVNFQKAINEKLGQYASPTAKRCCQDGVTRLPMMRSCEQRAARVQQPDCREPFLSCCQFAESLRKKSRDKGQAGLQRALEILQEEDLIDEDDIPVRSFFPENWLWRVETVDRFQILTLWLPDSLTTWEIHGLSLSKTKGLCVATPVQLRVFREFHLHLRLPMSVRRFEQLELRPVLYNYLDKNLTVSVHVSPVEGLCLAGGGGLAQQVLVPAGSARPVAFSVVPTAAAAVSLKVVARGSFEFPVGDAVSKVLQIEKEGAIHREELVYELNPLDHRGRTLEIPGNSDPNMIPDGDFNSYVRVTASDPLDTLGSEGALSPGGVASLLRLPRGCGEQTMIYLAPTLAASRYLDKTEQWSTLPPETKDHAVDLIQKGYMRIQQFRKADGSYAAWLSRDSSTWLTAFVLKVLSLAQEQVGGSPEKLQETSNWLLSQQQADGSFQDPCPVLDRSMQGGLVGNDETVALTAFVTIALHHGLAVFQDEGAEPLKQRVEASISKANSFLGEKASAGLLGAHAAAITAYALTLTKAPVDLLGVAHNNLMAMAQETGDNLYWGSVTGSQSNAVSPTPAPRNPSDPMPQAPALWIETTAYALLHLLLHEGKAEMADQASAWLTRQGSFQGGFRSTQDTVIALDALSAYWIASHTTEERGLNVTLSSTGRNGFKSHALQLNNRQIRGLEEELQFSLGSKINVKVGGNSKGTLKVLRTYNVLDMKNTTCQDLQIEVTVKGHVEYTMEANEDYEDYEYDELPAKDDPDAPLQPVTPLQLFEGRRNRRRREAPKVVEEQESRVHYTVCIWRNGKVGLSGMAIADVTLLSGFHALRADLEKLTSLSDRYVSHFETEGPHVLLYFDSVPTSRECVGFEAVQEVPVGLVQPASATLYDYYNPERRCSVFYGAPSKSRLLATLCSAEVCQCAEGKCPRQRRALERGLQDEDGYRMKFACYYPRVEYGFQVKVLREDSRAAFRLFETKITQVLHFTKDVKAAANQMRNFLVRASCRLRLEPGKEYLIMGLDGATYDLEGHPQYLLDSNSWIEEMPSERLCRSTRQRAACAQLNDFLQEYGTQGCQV

Protein | lectin pathway-dependent C4 activation (C4 cleavage assay, C4b deposition on mannan) in pooled MASP-2-/- mouse serum
B1 | restored lectin pathway-dependent C4 activation in a protein concentration dependent manner
B2 | did not restore C4 activation

Source: patent US20060018896
